Test results: article PMC11698036, “Borg5 restricts contractility and motility in epithelial MDCK cells” (Journal of Cell Science, 2024)

Legend:
[1] = target: T1, His–Borg5 (recombinant mouse Borg5, Cdc42EP1) (mouse, UniProt Q91W92 1-409); assay: pull-down; three-way assay: His–Borg5 pre-incubated with septin 9-6-7-2 complexes, then bound to GST–MyoIIA-Rod immobilised on glutathione resin; septin buffer (300 mM KCl), 4°C; Coomassie gel and His blot; two experiments; settings: both partners purified
T1 construct: Borg5 (Cdc42EP1), mouse cDNA (Borg5–Myc cDNA of Vong et al., 2010), PCR-cloned into pet28a+; All recombinant Borg5 constructs were based on mouse Borg5–Myc cDNA; Runs at 50 kDa on the His blot; also called His-tagged Borg5; source: E. coli BL21(DE3), purified (boiled, 8 M urea, Ni-NTA agarose; also purified under native conditions)
T1 sequence (looked up): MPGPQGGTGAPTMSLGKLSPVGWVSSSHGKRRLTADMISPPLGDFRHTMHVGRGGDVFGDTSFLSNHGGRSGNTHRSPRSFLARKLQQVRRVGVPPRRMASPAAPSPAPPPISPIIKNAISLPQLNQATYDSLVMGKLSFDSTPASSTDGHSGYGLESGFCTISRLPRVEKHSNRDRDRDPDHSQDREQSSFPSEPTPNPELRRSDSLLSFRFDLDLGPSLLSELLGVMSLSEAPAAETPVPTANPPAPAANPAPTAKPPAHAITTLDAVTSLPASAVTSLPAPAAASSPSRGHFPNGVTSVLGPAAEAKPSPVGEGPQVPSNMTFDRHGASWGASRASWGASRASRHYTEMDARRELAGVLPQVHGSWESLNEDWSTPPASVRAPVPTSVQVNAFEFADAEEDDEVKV

[2] = target: T1, His–Borg5 (recombinant mouse Borg5, …); assay: pull-down; three-way assay: His–MyoIIA-Rod pre-incubated with His–Borg5, then bound to His–SEPT2/6/7/9–Strep immobilised on Strep-Tactin Sepharose; septin buffer (300 mM KCl), 4°C; biotin elution; His blot; four experiments; settings: both partners purified

B1: septin 9–septin 6–septin 7–septin 2 complex (His–SEPT2/6/7/9–Strep) (complex)
chain 1: MSKQQPTQFINPETPGYVGFANLPNQVHRKSVKKGFEFTLMVVGESGLGKSTLINSLFLTDLYPERIIPGAAEKIERTVQIEASTVEIEERGVKLRLTVVDTPGYGDAINCRDCFKTIISYIDEQFERYLHDESGLNRRHIIDNRVHCCFYFISPFGHGLKPLDVAFMKAIHNKVNIVPVIAKADTLTLKERERLKKRILDEIEEHSIKIYHLPDAESDEDEDFKEQTRLLKASIPFSVVGSNQLIEAKGKKVRGRLYPWGVVEVENPEHNDFLKLRTMLITHMQDLQEVTQDLHYENFRSERLKRGGRKVENEDMNKDQILLEKEAELRRMQEMIARMQAQMQMQMQGGDSDSGALGQHV
chain 2: MAATDIARQVGEGCRTVPLAGHVGFDSLPDQLVNKSVSQGFCFNILCVGETGLGKSTLMDTLFNTKFEGEPATHTQPGVQLQSNTYDLQESNVRLKLTIVSTVGFGDQINKEDSYKPIVEFIDAQFEAYLQEELKIRRVLHTYHDSRIHVCLYFIAPTGHSLKSLDLVTMKKLDSKVNIIPIIAKADAISKSELTKFKIKITSELVSNGVQIYQFPTDDESVAEINGTMNAHLPFAVIGSTEELKIGNKMMRARQYPWGTVQVENEAHCDFVKLREMLIRVNMEDLREQTHTRHYELYRRCKLEEMGFKDTDPDSKPFSLQETYEAKRNEFLGELQKKEEEMRQMFVQRVKEKEAELKEAEKELHEKFDRLKKLHQDEKKKLEDKKKSLDDEVNAFKQRKTAAELLQSQGSQAGGSQTLKRDKEKKNNPWLCTE
chain 3: MSVSARSAAAEERSVNSSTMVAQQKNLEGYVGFANLPNQVYRKSVKRGFEFTLMVVGESGLGKSTLINSLFLTDLYSPEYPGPSHRIKKTVQVEQSKVLIKEGGVQLLLTIVDTPGFGDAVDNSNCWQPVIDYIDSKFEDYLNAESRVNRRQMPDNRVQCCLYFIAPSGHGLKPLDIEFMKRLHEKVNIIPLIAKADTLTPEECQQFKKQIMKEIQEHKIKIYEFPETDDEEENKLVKKIKDRLPLAVVGSNTIIEVNGKRVRGRQYPWGVAEVENGEHCDFTILRNMLIRTHMQDLKDVTNNVHYENYRSRKLAAVTYNGVDNNKNKGQLTKSPLAQMEEERREHVAKMKKMEMEMEQVFEMKVKEKVQKLKDSEAELQRRHEQMKKNLEAQHKELEEKRRQFEDEKANWEAQQRILEQQNSSRTLEKNKKKGKIF
chain 4: MKKSYSGGTRTSSGRLRRLGDSSGPALKRSFEVEEVETPNSTPPRRVQTPLLRATVASSTQKFQDLGVKNSEPSARHVDSLSQRSPKASLRRVELSGPKAAEPVSRRTELSIDISSKQVENAGAIGPSRFGLKRAEVLGHKTPEPAPRRTEITIVKPQESAHRRMEPPASKVPEVPTAPATDAAPKRVEIQMPKPAEAPTAPSPAQTLENSEPAPVSQLQSRLEPKPQPPVAEATPRSQEATEAAPSCVGDMADTPRDAGLKQAPASRNEKAPVDFGYVGIDSILEQMRRKAMKQGFEFNIMVVGQSGLGKSTLINTLFKSKISRKSVQPTSEERIPKTIEIKSITHDIEEKGVRMKLTVIDTPGFGDHINNENCWQPIMKFINDQYEKYLQEEVNINRKKRIPDTRVHCCLYFIPATGHSLRPLDIEFMKRLSKVVNIVPVIAKADTLTLEERVHFKQRITADLLSNGIDVYPQKEFDEDSEDRLVNEKFREMIPFAVVGSDHEYQVNGKRILGRKTKWGTIEVENTTHCEFAYLRDLLIRTHMQNIKDITSSIHFEAYRVKRLNEGSSAMANGMEEKEPEAPEM
notes: Prepared according to Castro-Linares et al. (2022); Tag ends are read from the plasmid names; As I recall, these Addgene plasmids hold mouse SEPT2 and human SEPT6, SEPT7 and SEPT9_i1; also called septin 9-6-7-2; SEPT complexes; source: E. coli BL21(DE3), co-expressed, purified (nickel agarose, then Strep-Tactin Sepharose); not shown: 6xHis, N-terminal, kept; Strep tag, C-terminal, kept; copies: + …
[1]
  His–Borg5 binding to Myo–GST with SEPT complexes, relative to that without septins (experiment 1): 0.6 fraction of that observed without septins present
  His–Borg5 binding to Myo–GST with SEPT complexes, relative to that without septins (experiment 2): 0.3 fraction of that observed without septins present

B2: His-tagged rod domain of myosin IIA (His–MyoIIA-Rod) (domain or fragment, UniProt P35579 1339-1960, looked up)
chain: NSFREQLEEEEEAKHNLEKQIATLHAQVADMKKKMEDSVGCLETAEEVKRKLQKDLEGLSQRHEEKVAAYDKLEKTKTRLQQELDDLLVDLDHQRQSACNLEKKQKKFDQLLAEEKTISAKYAEERDRAEAEAREKETKALSLARALEEAMEQKAELERLNKQFRTEMEDLMSSKDDVGKSVHELEKSKRALEQQVEEMKTQLEELEDELQATEDAKLRLEVNLQAMKAQFERDLQGRDEQSEEKKKQLVRQVREMEAELEDERKQRSMAVAARKKLEMDLKDLEAHIDSANKNRDEAIKQLRKLQAQMKDCMRELDDTRASREEILAQAKENEKKLKSMEAEMIQLQEELAAAERAKRQAQQERDELADEIANSSGKGALALEEKRRLEARIAQLEEELEEEQGNTELINDRLKKANLQIDQINTDLNLERSHAQKNENARQQLERQNKELKVKLQEMEGTVKSKYKASITALEAKIAQLEEQLDNETKERQAACKQVRRTEKKLKDVLLQVDDERRNAEQYKDQADKASTRLKQLKRQLEEAEEEAQRANASRRKLQRELEDATETADAMNREVSSLKNKLRRGDLPFVVPRRMARKGAGDGSDEEVDGKADGAEAKPAE
notes: Myosin IIA heavy chain (MYH9), rod domain, amino acids 1339–1960, in pet28a; Construct provided by Anne Bresnick; also called His-MyoIIRod; His-MyoRod; source: E. coli BL21(DE3), purified (Mg-ATP step, nickel agarose)
[2]
  Borg5–SEPT binding with His-MyoIIRod, relative to that without MyoIIRod: 0.57 fraction of that without MyoIIRod
